These results are taken from publication PMC10786891, “Massively parallel profiling of RNA-targeting CRISPR-Cas13d”.

B1: target 1 insG 3' of 22,insU 3' of 22 (mixed)
RNA 1: CACCCGUGCAAAAAUGCAGGGGUCUAAAACUGAGCGGAUAACCUCUCUAUGG
RNA 2: GGGAAUGGAUCCACAUCUACGAAUUCGUACGUCAUAGAGAGGUUAUCCGCUCACCGAGAUCGGAAGAGCACACGU
B2: target 1 insG 3' of 19,insC 3' of 19 (mixed)
RNA 1: B1 RNA 1
RNA 2: B1 RNA 2 with G31C, U32A, C33U, A34G, U35C
B3: target 1 insC 3' of 8,insG 3' of 3 (mixed)
RNA 1: B1 RNA 1
RNA 2: GGGAAUGGAUCCACAUCUACGAAUUCGUACCAUAGAGAGGUUAUCCCGCUGCACCGAGAUCGGAAGAGCACACGU
B4: target 2 MT 5'PFS UUA 3'PFS ACU (mixed)
RNA 1: CACCCGUGCAAAAUUGCAGGGGUCUAAAACCUUCUCCAAAUUGUUUCAUCCU
RNA 2: GGGAAUGGAUCCACAUCUACGAAUUCUUAAGGAUGAAACAAUUUGGAGAAGACUAGAUCGGAAGAGCACACGU
B5: target 2 MT 5'PFS UUA 3'PFS UUG (mixed)
RNA 1: B4 RNA 1
RNA 2: B4 RNA 2 with A52U, C53U, U54G
B6: target 2 MT 5'PFS GUC 3'PFS CUC (mixed)
RNA 1: B4 RNA 1
RNA 2: B4 RNA 2 with U27G, A29C, A52C, C53U, U54C
B7: target 2 MT 5'PFS GCU 3'PFS UAC (mixed)
RNA 1: B4 RNA 1
RNA 2: B4 RNA 2 with U27G, U28C, A29U, A52U, C53A, U54C
B8: target 2 MT 5'PFS GGG 3'PFS AGC (mixed)
RNA 1: B4 RNA 1
RNA 2: B4 RNA 2 with U27G, U28G, A29G, C53G, U54C
B9: target 2 MT 5'PFS GAG 3'PFS CAG (mixed)
RNA 1: B4 RNA 1
RNA 2: B4 RNA 2 with U27G, U28A, A29G, A52C, C53A, U54G
B10: target 2 MT 5'PFS GUC 3'PFS CUA (mixed)
RNA 1: B4 RNA 1
RNA 2: B4 RNA 2 with U27G, A29C, A52C, C53U, U54A
B11: target 2 MT 5'PFS GGG 3'PFS AGU (mixed)
RNA 1: B4 RNA 1
RNA 2: B4 RNA 2 with U27G, U28G, A29G, C53G
B12: target 2 MT 5'PFS GCA 3'PFS CUU (mixed)
RNA 1: B4 RNA 1
RNA 2: B4 RNA 2 with U27G, U28C, A52C, C53U
B13: target 2 MT 5'PFS GAG 3'PFS CAC (mixed)
RNA 1: B4 RNA 1
RNA 2: B4 RNA 2 with U27G, U28A, A29G, A52C, C53A, U54C
B14: target 2 MT 5'PFS GAG 3'PFS CAU (mixed)
RNA 1: B4 RNA 1
RNA 2: B4 RNA 2 with U27G, U28A, A29G, A52C, C53A
B15: target 2 MT 5'PFS GGG 3'PFS AGG (mixed)
RNA 1: B4 RNA 1
RNA 2: B4 RNA 2 with U27G, U28G, A29G, C53G, U54G
B16: target 2 MT 5'PFS GUG 3'PFS AGG (mixed)
RNA 1: B4 RNA 1
RNA 2: B4 RNA 2 with U27G, A29G, C53G, U54G
B17: target 2 MT 5'PFS GGG 3'PFS CGU (mixed)
RNA 1: B4 RNA 1
RNA 2: B4 RNA 2 with U27G, U28G, A29G, A52C, C53G
B18: target 2 MT 5'PFS GGG 3'PFS CGG (mixed)
RNA 1: B4 RNA 1
RNA 2: B4 RNA 2 with U27G, U28G, A29G, A52C, C53G, U54G
B19: target 2 MT 5'PFS UUA 3'PFS UUA (mixed)
RNA 1: B4 RNA 1
RNA 2: B4 RNA 2 with A52U, C53U, U54A
B20: target 2 MT 5'PFS ACG 3'PFS AUU (mixed)
RNA 1: B4 RNA 1
RNA 2: B4 RNA 2 with U27A, U28C, A29G, C53U
B21: target 2 MT 5'PFS GAG 3'PFS CAA (mixed)
RNA 1: B4 RNA 1
RNA 2: B4 RNA 2 with U27G, U28A, A29G, A52C, C53A, U54A
B22: target 2 MT 5'PFS GGG 3'PFS CGA (mixed)
RNA 1: B4 RNA 1
RNA 2: B4 RNA 2 with U27G, U28G, A29G, A52C, C53G, U54A
B23: target 2 MT 5'PFS GCA 3'PFS CUG (mixed)
RNA 1: B4 RNA 1
RNA 2: B4 RNA 2 with U27G, U28C, A52C, C53U, U54G
B24: target 2 MT 5'PFS GAU 3'PFS AUU (mixed)
RNA 1: B4 RNA 1
RNA 2: B4 RNA 2 with U27G, U28A, A29U, C53U
B25: target 2 MT 5'PFS GAC 3'PFS CCG (mixed)
RNA 1: B4 RNA 1
RNA 2: B4 RNA 2 with U27G, U28A, A29C, A52C, U54G
B26: target 2 MT 5'PFS GUG 3'PFS AGU (mixed)
RNA 1: B4 RNA 1
RNA 2: B4 RNA 2 with U27G, A29G, C53G
B27: target 2 MT 5'PFS GCU 3'PFS UAA (mixed)
RNA 1: B4 RNA 1
RNA 2: B4 RNA 2 with U27G, U28C, A29U, A52U, C53A, U54A
B28: target 2 MT 5'PFS GCA 3'PFS CUA (mixed)
RNA 1: B4 RNA 1
RNA 2: B4 RNA 2 with U27G, U28C, A52C, C53U, U54A
B29: target 2 MT 5'PFS GCU 3'PFS UUC (mixed)
RNA 1: B4 RNA 1
RNA 2: B4 RNA 2 with U27G, U28C, A29U, A52U, C53U, U54C
B30: target 2 MT 5'PFS GGG 3'PFS AGA (mixed)
RNA 1: B4 RNA 1
RNA 2: B4 RNA 2 with U27G, U28G, A29G, C53G, U54A
B31: target 2 MT 5'PFS GCA 3'PFS CUC (mixed)
RNA 1: B4 RNA 1
RNA 2: B4 RNA 2 with U27G, U28C, A52C, C53U, U54C
B32: target 2 MT 5'PFS GUC 3'PFS CUU (mixed)
RNA 1: B4 RNA 1
RNA 2: B4 RNA 2 with U27G, A29C, A52C, C53U
B33: target 2 MT 5'PFS GUG 3'PFS AGA (mixed)
RNA 1: B4 RNA 1
RNA 2: B4 RNA 2 with U27G, A29G, C53G, U54A
B34: target 2 MT 5'PFS GUG 3'PFS AGC (mixed)
RNA 1: B4 RNA 1
RNA 2: B4 RNA 2 with U27G, A29G, C53G, U54C
B35: target 2 MT 5'PFS ACG 3'PFS AUA (mixed)
RNA 1: B4 RNA 1
RNA 2: B4 RNA 2 with U27A, U28C, A29G, C53U, U54A
B36: target 2 MT 5'PFS GGG 3'PFS CGC (mixed)
RNA 1: B4 RNA 1
RNA 2: B4 RNA 2 with U27G, U28G, A29G, A52C, C53G, U54C

Broadly, the Kd is the concentration at which binding is half-saturated. Higher therefore signals a looser complex.

Numbering of substitutions follows the chain as printed.

The target of this data set is T1, EsCas13d, nuclease-dead (Eubacterium siraeum, UniProt B0MS50, R295A;H300A;R849A;H854A).
T1 sequence: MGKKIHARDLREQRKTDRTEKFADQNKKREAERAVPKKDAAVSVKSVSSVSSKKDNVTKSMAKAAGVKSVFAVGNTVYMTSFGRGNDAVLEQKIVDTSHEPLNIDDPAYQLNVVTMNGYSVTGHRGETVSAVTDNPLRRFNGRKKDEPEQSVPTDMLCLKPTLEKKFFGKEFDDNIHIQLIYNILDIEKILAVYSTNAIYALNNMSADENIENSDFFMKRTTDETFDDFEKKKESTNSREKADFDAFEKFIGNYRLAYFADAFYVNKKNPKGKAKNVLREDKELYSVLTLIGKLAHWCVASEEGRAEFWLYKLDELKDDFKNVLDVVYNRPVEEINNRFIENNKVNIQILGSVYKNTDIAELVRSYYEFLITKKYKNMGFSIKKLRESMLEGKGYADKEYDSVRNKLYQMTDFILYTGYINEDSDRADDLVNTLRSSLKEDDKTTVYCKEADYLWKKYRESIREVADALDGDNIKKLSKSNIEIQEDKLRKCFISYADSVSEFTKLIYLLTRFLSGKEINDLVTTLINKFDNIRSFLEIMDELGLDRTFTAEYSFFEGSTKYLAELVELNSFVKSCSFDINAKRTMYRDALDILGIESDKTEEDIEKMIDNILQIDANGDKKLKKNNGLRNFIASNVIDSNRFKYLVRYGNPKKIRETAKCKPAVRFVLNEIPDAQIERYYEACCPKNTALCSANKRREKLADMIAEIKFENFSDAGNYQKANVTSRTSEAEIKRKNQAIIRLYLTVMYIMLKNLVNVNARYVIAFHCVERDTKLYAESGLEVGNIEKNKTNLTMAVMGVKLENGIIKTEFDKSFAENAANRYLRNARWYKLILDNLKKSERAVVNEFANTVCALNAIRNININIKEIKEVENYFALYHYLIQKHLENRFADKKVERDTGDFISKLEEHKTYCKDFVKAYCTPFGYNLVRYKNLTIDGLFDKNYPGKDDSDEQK
In words: crRNA (strand 1, pre-loaded); Mg2+; 40 mM Tris-HCl pH 7.5, 150 mM NaCl, 6 mM MgCl2, 1 mM DTT, 0.1% Tween-20, 0.2 mg/ml BSA; 25 C; 10 min per concentration, then washed. The conditions noted are these: tags: His6-TwinStrep-SUMO cleaved; N-terminal SNAP kept (SNAP-Surface 488); label: 3' end held by stalled T7 RNA polymerase.
B1 had a Kd of 23.5 ± 2.9 nM.

Consider B2, for which binding was put at a Kd of 82 ± 11 nM.

Molecule B3 showed a Kd of 9.8 ± 0.4 nM.

On to B4, for which the affinity, expressed as Kd, was 32 ± 4 nM.

Take B5: binding was characterised by a dissociation constant (Kd) of 19.3 ± 2.8 nM.

Take B6: the affinity, expressed as Kd, was 15.5 ± 2.4 nM.

Turning to B7, the Kd was found to be 13.2 ± 2.4 nM.

For B8, the affinity, expressed as Kd, was 6.5 ± 0.4 nM.

In turn, B9 returned a Kd of 5.31 ± 0.29 nM.

Molecule B10 displayed a Kd of 11.8 ± 1.8 nM.

In the case of B11, the Kd was determined as 6.2 ± 0.5 nM.

B12 registered a Kd of 16 ± 4 nM.

As to B13, binding was put at a Kd of 5.1 ± 0.5 nM.

As for B14, the affinity, expressed as Kd, was 5.14 ± 0.34 nM.

B15 displayed a Kd of 7.5 ± 0.5 nM.

As to B16, the Kd came out at 11 ± 0.7 nM.

As for B17, the Kd was determined as 9.8 ± 0.7 nM.

B18 came in with a Kd of 8.5 ± 0.5 nM.

Regarding B19, the Kd amounted to 49 ± 21 nM.

On to B20, for which the dissociation constant Kd stood at 5.6 ± 1 nM.

In the case of B21, binding was put at a Kd of 4.9 ± 0.7 nM.

Turning to B22, the Kd came to 8.2 ± 0.7 nM.

Molecule B23 yielded a dissociation constant (Kd) of 12.5 ± 2 nM.

Regarding B24, the Kd is 8.3 ± 0.8 nM. Compared with the last molecule, the Kd is about 1.5-fold lower.

B25 yielded a Kd of 13 ± 1.5 nM.

Regarding B26, the affinity, expressed as Kd, was 12.3 ± 1.1 nM.

B27 showed a Kd of 7.8 ± 1.8 nM.

Regarding B28, the affinity, expressed as Kd, was 10.9 ± 2.5 nM.

Molecule B29 returned a dissociation constant (Kd) of roughly 90 nM.

On to B30, for which the affinity, expressed as Kd, was 5.5 ± 0.5 nM.

In turn, B31 came in with a Kd of 23 ± 7 nM.

With B32, the Kd is 13.9 ± 1.2 nM.

The molecule B33 showed a Kd of 10.3 ± 1.8 nM.

The molecule B34 returned a Kd of 7.2 ± 0.4 nM.

In the case of B35, binding was put at a Kd of 11 ± 4 nM.

Take B36: binding was put at a Kd of 10.5 ± 0.9 nM.
